The values below come from patent publication US20260028422A1 (CONCEPT TO MEDICINE BIOTECH, published 2026).

The target in one assay is T1, cyno MerTK-his protein (cynomolgus, UniProt A0A2K5V1H9 27-505).
T1 construct: also called cyno MerTK protein; Cynomolgus
T1 sequence: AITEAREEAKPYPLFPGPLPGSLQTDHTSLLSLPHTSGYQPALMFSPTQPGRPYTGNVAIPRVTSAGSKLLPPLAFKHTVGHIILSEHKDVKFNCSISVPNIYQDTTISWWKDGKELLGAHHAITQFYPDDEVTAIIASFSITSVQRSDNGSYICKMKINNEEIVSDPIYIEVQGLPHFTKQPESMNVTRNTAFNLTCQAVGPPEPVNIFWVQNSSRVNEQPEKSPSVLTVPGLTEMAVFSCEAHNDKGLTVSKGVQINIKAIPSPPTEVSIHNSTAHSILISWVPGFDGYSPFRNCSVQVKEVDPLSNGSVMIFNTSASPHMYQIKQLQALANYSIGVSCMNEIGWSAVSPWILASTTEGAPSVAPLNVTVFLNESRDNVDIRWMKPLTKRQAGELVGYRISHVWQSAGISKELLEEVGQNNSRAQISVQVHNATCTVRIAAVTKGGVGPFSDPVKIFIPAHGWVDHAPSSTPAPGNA
Description: ELISA, coated cyno MerTK-his. The protocol:
(§1) To evaluate the binding activity, the chimeric mAbs were subjected to ELISA test. Briefly, 96-well plates were coated with human or cyno MerTK-his protein at 2 μg/mL in PBS, 100 μL/well at 4° C. overnight, then blocked with 150 μL/well of 1% BSA. Five-fold dilutions of MerTK antibodies starting from 20 nM were added to each well and incubated for 1 hour at room temperature. The plates were washed with PBS/Tween-20 and then incubated with goat anti-human IgG Fe antibody conjugated with Horse Radish Peroxidase (HRP) for 30 minutes (mins) at room temperature. After washing, the plates were developed with TMB substrate and subsequent stop solution was added to complete the reaction. The signal from each well was read by spectrophotometer at OD 450 nm.

A further assay addresses T2, human MerTK-his protein (human, UniProt Q12866 21-505).
T2 construct: extracellular domain; also called hMerTK-His; human MerTK protein
T2 sequence (looked up): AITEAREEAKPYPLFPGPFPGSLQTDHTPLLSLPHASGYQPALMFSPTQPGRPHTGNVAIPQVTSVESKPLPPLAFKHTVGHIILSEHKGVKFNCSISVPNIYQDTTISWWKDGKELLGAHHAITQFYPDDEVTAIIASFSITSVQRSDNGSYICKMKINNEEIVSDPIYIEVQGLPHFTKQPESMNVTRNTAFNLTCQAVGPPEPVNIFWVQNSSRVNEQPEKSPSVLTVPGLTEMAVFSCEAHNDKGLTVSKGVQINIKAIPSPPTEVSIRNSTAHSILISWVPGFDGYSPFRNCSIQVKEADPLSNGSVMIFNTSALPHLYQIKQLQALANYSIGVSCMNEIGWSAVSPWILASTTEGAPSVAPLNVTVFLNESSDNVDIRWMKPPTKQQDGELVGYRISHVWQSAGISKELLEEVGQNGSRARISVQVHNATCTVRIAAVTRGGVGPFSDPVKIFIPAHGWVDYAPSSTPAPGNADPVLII
Description: ELISA, coated human MerTK-his. The protocol:
as §1

The target of assay [1] is T3, human MerTK expressed on cells (human, UniProt Q12866 21-999).
T3 construct: whole, on cells; also called CHO-K1-hMerTK; CHO-K1-MerTK
T3 sequence (looked up): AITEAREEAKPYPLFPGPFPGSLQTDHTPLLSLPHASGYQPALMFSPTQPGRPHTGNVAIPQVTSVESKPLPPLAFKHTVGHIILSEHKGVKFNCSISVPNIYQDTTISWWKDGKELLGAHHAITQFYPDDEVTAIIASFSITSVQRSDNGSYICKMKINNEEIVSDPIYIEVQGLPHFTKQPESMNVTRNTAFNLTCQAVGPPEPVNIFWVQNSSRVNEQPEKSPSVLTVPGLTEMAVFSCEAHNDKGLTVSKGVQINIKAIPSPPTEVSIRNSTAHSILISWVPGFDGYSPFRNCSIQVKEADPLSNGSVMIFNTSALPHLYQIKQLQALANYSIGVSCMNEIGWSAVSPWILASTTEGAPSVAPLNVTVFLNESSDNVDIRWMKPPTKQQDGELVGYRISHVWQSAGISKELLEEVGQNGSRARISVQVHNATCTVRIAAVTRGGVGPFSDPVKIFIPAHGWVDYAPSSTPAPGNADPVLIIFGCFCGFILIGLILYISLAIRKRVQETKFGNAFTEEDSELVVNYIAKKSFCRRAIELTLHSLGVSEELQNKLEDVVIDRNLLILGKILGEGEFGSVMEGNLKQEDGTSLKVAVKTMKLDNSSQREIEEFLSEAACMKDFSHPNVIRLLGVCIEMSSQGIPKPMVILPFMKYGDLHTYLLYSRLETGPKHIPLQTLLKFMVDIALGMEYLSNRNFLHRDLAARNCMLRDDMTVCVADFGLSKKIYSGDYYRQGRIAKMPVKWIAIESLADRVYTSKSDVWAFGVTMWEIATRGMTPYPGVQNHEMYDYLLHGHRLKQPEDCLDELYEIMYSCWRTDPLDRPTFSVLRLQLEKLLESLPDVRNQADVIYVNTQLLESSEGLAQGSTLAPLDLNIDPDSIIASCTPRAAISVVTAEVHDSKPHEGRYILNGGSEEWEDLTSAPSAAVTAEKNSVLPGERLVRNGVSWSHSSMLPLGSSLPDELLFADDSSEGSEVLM
Kind of assay: FACS on SK-MEL-5 cells expressing human MerTK, geometric mean. The protocol: To evaluate the binding properties on MerTK expressed on cells, the chimeric monoclonal antibodies were analyzed for their binding to human melanoma cell line SK-MEL-5 expressing MerTK by FACS analysis. Briefly, SK-MEL-5 cells were firstly incubated with 5-fold serially diluted chimeric mAbs starting at 20 nM at 4° C. for 30 mins. After washing by FACS buffer, the PE conjugated anti-human IgG secondary antibody was incubated with the cell-antibody complex in the wells at 4° C. for 30 mins to detect the antibodies those bound to the cells. The MFI of PE was evaluated by QuantAnalyzer 16.

B1: 252H9D5 chimeric monoclonal antibody (antibody, V domains shown)
VH: QVTLRESGPGILQPSQTLSLTCSFSGFSLNTFGMGVGWIRQSSGKGLKWLAHIWWDDDKFYNPALKSRLTISKDTSKNQVFLKIANVDTTDTATYYCARIEGGLPYYYDYWGQGTPLIVSS
VL: DIVMTQSQKIMSTSVGDRISVTCKASQIVGTNVVWYQQKPGQSPKALIYSTSYRYSGVPDRFTGSRSGTDFTLTISNVQSEDLANYFCQQYNSYPFTFGSGTKLEIK
As to B1, the results for the concentration for a half-maximal effect (EC50) (with cyno MerTK-his protein; with human MerTK-his protein; in assay [1]) were 0.15 nM, 0.052 nM and 0.053 nM, respectively. In assay [1], this molecule had a Top of 4790 Geometric Mean.

B2: 252C12B10 chimeric monoclonal antibody (antibody, V domains shown)
VH: QVQLQQPGTELVKPGASVKLSCKTSGYTFTSYWMHWMKQRPGQGLEWLGHINPSTGGSNYNEKFKSKATLTVDKSSNTAYMQLSSLTSEDSAVYYCARPRGFYGYSYWYFDVWGSGTTVTVSS
VL: DIQMTQTTSSLSASLGDRVTISCSASQDINNYLNWYQHKPDGTIKVLIYFTSSLHSGVPSRFSGSGSGTEYSLTISNLEPEDIATYYCQQYSKLPPTFGSGTKLEIK
Consider B2, for which the EC50 in the assay with cyno MerTK-his protein came to 0.04 nM; in the assay with human MerTK-his protein, 0.039 nM; in assay [1], 0.043 nM. This molecule gave a Top in assay [1] of 4460 Geometric Mean.

The EC50 is the concentration needed to bring the measured effect to its halfway point. Low values mean a more potent agent, high ones a less potent agent.
